doi:10.1101/2020.05.26.100743 (bioRxiv, 2020)

Assays:
Assay in all cases: SPR
[1] = target: VH1 C110S mutant (His-MBP-VH1 fusion) (vaccinia virus Copenhagen strain, UniProt P20495 1-171, C110S)
[2] = target: VH1 K20A mutant (His-MBP-VH1 fusion) (vaccinia virus Copenhagen strain, UniProt P20495 1-171, K20A)
[3] = target: VH1 K22A mutant (His-MBP-VH1 fusion) (vaccinia virus Copenhagen strain, UniProt P20495 1-171, K22A)
[4] = target: VH1 M60A mutant (His-MBP-VH1 fusion) (vaccinia virus Copenhagen strain, UniProt P20495 1-171, M60A)
[5] = target: VH1 T25A mutant (His-MBP-VH1 fusion) (vaccinia virus Copenhagen strain, UniProt P20495 1-171, T25A)
[6] = target: VH1 T59A mutant (His-MBP-VH1 fusion) (vaccinia virus Copenhagen strain, UniProt P20495 1-171, T59A)

Measured: binding result

B1: EGFR pTyr peptide 986-VDADEpYLIPQQ-998 (11-mer) (peptide)
peptide: VDADEYLIPQQ
binds: all assays above
